Data from the Human Domainome abundance scans (Beltran et al. 2025).

B1: Nucleolar transcription factor 1, residues 408 to 469; numbered along this chain, P17480 (parent)
chain: KRPVSAMFIFSEEKRRQLQEERPELSESELTRLLARMWNDLSEKKKAKYKAREAALKAQSER

Variants of: B1
Test: abundance fitness (aPCA) (normalised: wild type 0, dead -1); higher = more abundant; growth selection in yeast, the domain comes from the species named
Details: Homo sapiens

Abundance fitness, by site and new letter:
E27: Y -0.108
S28: A -0.053, C -0.043, D 0.055, E -0.011, F -0.071, G -0.047, H -0.06, I -0.046, K -0.037, M -0.131, N -0.053, P -0.047, Q -0.08, R -0.113, T -0.076, V -0.089, Y -0.085
E29: C -0.223, F -0.603, G -0.2, H -0.223, I -0.327, K -0.207, L -0.304, M -0.172, N -0.174, P -1.14, Q -0.111, R -0.496, S -0.17, T -0.157, V -0.258, W -0.699, Y -0.433
L30: C -0.078, D -0.65, E -0.227, F -0.327, G -0.254, H -0.232, I -0.171, K -0.103, M -0.043, N -0.303, P -1.1, Q -0.032, R -0.108, S -0.178, T -0.118, W -0.177, Y -0.099
T31: A -0.043, C -0.143, D 0.005, E -0.051, F -0.308, G -0.116, H -0.074, I -0.25, K -0.086, L -0.107, M -0.133, P -0.423, Q -0.045, R -0.07, S -0.02, V -0.131, W -0.221, Y -0.428
R32: A -0.033, D -0.058, E -0.07, F -0.188, G -0.085, H 0.023, I -0.007, K 0.021, L -0.018, M -0.105, P -0.116, S 0.022, T -0.007, W -0.136, Y -0.157
L33: A -0.118, C -0.1, D -0.149, E 0.006, H -0.02, I 0.016, K -0.154, M -0.023, P -1.22, Q -0.092, R -0.159, S -0.188, V -0.067, W -0.315
L34: A -0.192, C -0.049, D -1.19, E -0.287, F -0.296, G -0.566, I -0.074, K -1.27, N -0.931, P -0.945, Q -0.525, R -0.954, S -0.271, T -0.096, V -0.026, W -1.01, Y -0.833
A35: C -0.194, D -0.035, E -0.009, F -0.176, H -0.341, I -0.015, L -0.063, M -0.102, N -0.011, Q -0.017, R -0.018, S -0.063, T 0.014, V -0.057, W -0.273, Y -0.387
R36: A -0.006, C -0.051, D 0.028, E -0.084, F -0.097, G -0.111, H -0.321, I -0.101, K -0.072, L -0.093, M -0.103, N -0.023, P -0.483, Q -0.096, T -0.037, V -0.05, W -0.182
M37: A -0.095, C -0.193, D -0.422, E -0.094, F -0.239, G -0.32, H -0.267, I -0.235, K -0.296, L -0.062, N -0.305, P -1.1, Q -0.237, R -0.147, S -0.225, T -0.212, V -0.382, Y -0.12
W38: A -0.892, C -0.98, D -0.456, E -0.49, G -0.667, H -0.803, I -0.867, K -0.787, L -0.985, M -1.06, N -1.07, P -0.737, Q -0.701, R -1.01, S -0.732, Y -0.151
N39: A -0.037, C -0.138, D -0.021, E -0.037, F -0.061, H -0.106, I -0.147, K -0.087, L -0.122, M -0.071, P -0.608, Q -0.015, R -0.058, S -0.054, T -0.038, V -0.166, W -0.203, Y -0.075
D40: A -0.143, C -0.213, E -0.058, F -0.135, G -0.094, H -0.257, I -0.763, K -0.15, L -0.105, M -0.044, N -0.265, P -0.911, Q -0.036, R -0.237, S -0.107, T -0.202, V -0.188, W -0.319
L41: A -0.165, C -0.219, D -0.613, E -0.388, F -0.362, G -0.932, H -0.8, I -0.139, K -0.576, M -0.066, N -0.609, P -0.846, Q -0.225, R -0.57, S -0.228, T -0.241, V -0.345, W -1.06, Y -0.507
S42: A -0.115, C -0.155, D 0.002, E -0.121, G -0.082, H -0.179, I -0.56, K -0.294, L -0.661, M -0.654, N -0.147, P -0.081, Q -0.288, R -0.698, T -0.078, V -0.427, W -1.06, Y -0.619
E43: A -0.001, D -0.367, G -0.231, L -0.205, P -0.592, R -0.329, S -0.213, V -0.207, W -0.276
K44: C -0.126, D 0.059, E -0.021, H -0.121, I -0.159, L -0.108, M -0.096, P -0.037, R -0.139, S 0.003, T -0.023, V -0.034, W -0.09
K45: A -0.048, C -0.002, D -0.052, E 0.067, F -0.105, G -0.009, H -0.099, I -0.07, L -0.131, M -0.039, N -0.064, P -0.435, Q 0.014, R -0.061, S -0.023, T -0.067, V -0.097, W -0.232, Y -0.181
K46: A -0.311, C -0.537, D -0.896, E -0.708, F -0.785, G -0.806, H -0.662, L -0.453, M -0.336, P -0.772, Q -0.112, R -0.069, S -0.569, T -0.393, V -0.3, W -0.736, Y -0.748
A47: C -0.156, D -0.291, E -0.039, F -0.11, G -0.098, H -0.295, I -0.184, K -0.029, L -0.064, N -0.297, P -0.695, Q -0.005, R -0.047, S -0.046, T -0.138, Y -0.122
K48: A 0.001, C -0.081, D 0.024, E 0.104
